# Test results from patent publication US20220409694A1, “POLYPEPTIDE, AND PREPARATION METHOD THEREFOR AND USE THEREOF” (SHANXI JINBO BIO-PHARMACEUTICAL CO., LTD., priority 2020, published 2022).
# How the values were obtained:
# Experiment in all cases: cell-based or functional assay
# [1] = target: Rs3367-CoV S protein (pcDNA3.1-Rs3367-CoV-S, on pseudovirus) (Rs3367-CoV (SARS-like virus from bats))
# [2] = target: WIV1-CoV S protein (pcDNA3.1-WIV1-CoV-S, on pseudovirus) (WIV1-CoV (SARS-like virus from bats))
# [3] = target: SARS-CoV S protein (pcDNA3.1-SARS-CoV-S, on pseudovirus) (SARS-CoV), P59594
binder,measurement,setting,value
SLDQINVTFLDLEYEMKKLEEAIKKLEESYIDLKEL (modifications not checked) [EK1],"Inhibitory Activity, IC50 (pseudovirus infection of HuH7, luciferase)",[1],4000 nM
same,"Inhibitory Activity, IC50 (pseudovirus infection of HuH7, luciferase)",[2],2940 nM
same,"Inhibitory Activity, IC50 (pseudovirus infection of HuH7, luciferase)",[3],1890 nM
